In publication PMC4786772, “Manipulation of prenylation reactions by structure-based engineering of bacterial indolactam prenyltransferases” (Nature Communications, 2016):

Legend:
Assay in all cases: purified protein
Conditions in all cases: 150 μM (−)-indolactam V, 42 °C, 5 min, Tris-HCl pH 7.0, 150 mM NaCl
[1] = tested on: CC(C)=CCOP(=O)(O)OP(=O)(O)O
[2] = tested on: CC(C)=CCC/C(C)=C/CC/C(C)=C/CO[P@@](=O)(O)OP(=O)(O)O
[3] = tested on: CC(C)=CCC/C(C)=C/COP(=O)(O)OP(=O)(O)O

Substance | Km [1] [µM] | kcat [1] [s⁻¹] | kcat/Km [1] [M⁻¹ s⁻¹] | Km [2] [µM] | kcat [2] [s⁻¹] | kcat/Km [2] [M⁻¹ s⁻¹] | Km [3] [µM] | kcat [3] [s⁻¹] | kcat/Km [3] [M⁻¹ s⁻¹]
TleC (Streptomyces blastmyceticus; A173M/F170W/W97Y) | 46.6 ± 8.2 | 0.0433 ± 0.00333 | 900 | – | – | – | – | – | –
TleC (Streptomyces blastmyceticus; A173M/W97Y) | 41.2 ± 5.6 | 0.0333 ± 0.00167 | 800 | – | – | – | – | – | –
MpnD (Marinactinospora thermotolerans; M159A) | 24.2 ± 4.2 | 0.505 ± 0.0333 | 20900 | 48.7 ± 14.6 | 0.167 ± 0.015 | 3400 | 9.1 ± 1.2 | 0.0717 ± 0.00333 | 7900
MpnD (Marinactinospora thermotolerans; Y80W) | 15.3 ± 2.5 | 0.118 ± 0.005 | 7700 | – | – | – | 9.7 ± 1.1 | 0.09 ± 0.00167 | 9300
TleC (Streptomyces blastmyceticus; W97Y) | 11.3 ± 1.6 | 0.402 ± 0.0133 | 35500 | – | – | – | 7.7 ± 1.0 | 0.168 ± 0.00667 | 21800
MpnD (Marinactinospora thermotolerans) | 4.8 ± 1.0 | 0.882 ± 0.0433 | 183000 | 95.5 ± 17.1 | 0.0867 ± 0.00833 | 900 | 26.0 ± 4.9 | 0.0433 ± 0.00333 | 1700
TleC (Streptomyces blastmyceticus; A173M) | 24.6 ± 3.0 | 0.065 ± 0.00167 | 2600 | – | – | – | – | – | –
TleC (Streptomyces blastmyceticus) | 21.7 ± 4.3 | 0.025 ± 0.00167 | 1100 | – | – | – | 9.5 ± 3.3 | 0.25 ± 0.025 | 26400
